Laboratory results reported in the Human Domainome abundance scans (Beltran et al. 2025).
± gives the uncertainty stated by the source.

B1: Zinc finger homeobox protein 4, residues 2562 to 2617; numbered along this chain, Q86UP3 (parent)
chain: RLRTTITPEQLEILYEKYLLDSNPTRKMLDHIAREVGLKKRVVQVWFQNTRARERK

Variants of: B1
Experiment: abundance fitness (aPCA) (normalised: wild type 0, dead -1); higher = more abundant; growth selection in yeast, the domain comes from the species named
Conditions: Homo sapiens

Abundance fitness of substitutions, site by site:
M28: R -0.297 ± 0.074 | S -0.152 ± 0.053 | Q -0.067 ± 0.059
V45: Y -0.036 ± 0.2 | H -0.262 ± 0.27 | P -0.754 ± 0.2 | R -0.402 ± 0.069 | K -0.249 ± 0.11
E35: S -0.158 ± 0.059 | F -0.564 ± 0.094 | N -0.358 ± 0.14 | I -0.163 ± 0.094 | D -0.278 ± 0.12 | Q -0.283 ± 0.12 | A -0.235 ± 0.057 | T -0.254 ± 0.1 | R -0.654 ± 0.066
D30: V -0.292 ± 0.074 | H -0.269 ± 0.15 | E -0.088 ± 0.064 | M -0.352 ± 0.088 | A -0.108 ± 0.064 | C -0.431 ± 0.16 | W -0.173 ± 0.087
L14: A -0.765 ± 0.093 | H -0.846 ± 0.18 | G -0.773 ± 0.082 | P -0.658 ± 0.1 | N 0.341 ± 0.39 | S -0.998 ± 0.17 | E -0.924 ± 0.083
R41: C 0.068 ± 0.075 | N 0.248 ± 0.1 | A 0.257 ± 0.062 | G 0.264 ± 0.053
R34: T -0.02 ± 0.1 | C -0.223 ± 0.17 | P -0.638 ± 0.094 | L -0.011 ± 0.059 | E 0.244 ± 0.054 | I -0.43 ± 0.22 | A 0.195 ± 0.073 | H -0.162 ± 0.16
K17: R -0.258 ± 0.12 | Y 0.767 ± 0.29 | Q -0.033 ± 0.12 | M -0.024 ± 0.23
F47: Q -1.18 ± 0.34 | K -1 ± 0.27 | G -0.913 ± 0.13 | H -0.865 ± 0.44 | P -0.885 ± 0.17 | D -0.46 ± 0.36 | I -0.765 ± 0.2 | L -0.74 ± 0.1
N23: P -0.425 ± 0.18 | M -0.105 ± 0.11 | Q 0.013 ± 0.063 | L -0.238 ± 0.065 | A -0.064 ± 0.068 | S -0.1 ± 0.061 | T -0.213 ± 0.071 | V -0.356 ± 0.09
T7: K -0.55 ± 0.26 | N -0.238 ± 0.42 | R -0.449 ± 0.07 | A 0.208 ± 0.12 | Y -0.436 ± 0.09 | I -0.756 ± 0.43 | M -0.321 ± 0.14 | V -0.196 ± 0.11
Q44: F -0.416 ± 0.21 | C 0.246 ± 0.11 | D 0.322 ± 0.09 | S -0.248 ± 0.075 | H -0.101 ± 0.094 | K -0.035 ± 0.094
R26: L 0.24 ± 0.065 | V 0.223 ± 0.11 | W 0.237 ± 0.1 | I 0.917 ± 0.22
Q48: R -0.166 ± 0.07 | N -0.216 ± 0.17 | T 0.008 ± 0.065 | C -0.287 ± 0.091 | I -0.693 ± 0.34 | D 0.392 ± 0.11 | L -0.611 ± 0.12 | Y -0.168 ± 0.13
R51: C -0.267 ± 0.093 | N 0.156 ± 0.15 | S 0.086 ± 0.067 | W 0.057 ± 0.078 | H 0.32 ± 0.092
H31: C 0.052 ± 0.23 | Q 0.176 ± 0.11 | F -0.266 ± 0.16 | S 0.233 ± 0.086 | A 0.042 ± 0.082
K40: M 0.243 ± 0.099 | D -0.097 ± 0.19 | F 0.15 ± 0.13 | E 0.361 ± 0.085 | S 0.218 ± 0.049 | P 0.162 ± 0.1
T4: P 0.037 ± 0.11 | L -0.165 ± 0.073 | C -0.209 ± 0.09 | V -0.179 ± 0.07 | S -0.057 ± 0.07 | W -0.305 ± 0.057
R3: W -0.156 ± 0.056 | Q 0.424 ± 0.11 | G 0.194 ± 0.062 | A 0.119 ± 0.053
V42: A -0.197 ± 0.097 | S -0.348 ± 0.059 | Y -0.598 ± 0.22 | M -0.103 ± 0.077 | K -0.302 ± 0.07 | E 0.273 ± 0.093
W46: V -0.723 ± 0.061 | S -0.91 ± 0.11
V43: A -0.462 ± 0.063 | I -0.147 ± 0.084 | F -0.861 ± 0.28 | S -0.723 ± 0.16 | E -0.925 ± 0.12 | K -0.965 ± 0.27
Y15: W 0.048 ± 0.061 | R 0.161 ± 0.044 | L 0.054 ± 0.059 | A -0.105 ± 0.068 | H 0.085 ± 0.1 | V -0.206 ± 0.071
L11: P -1.05 ± 0.21 | T 0.215 ± 0.12 | A -0.059 ± 0.053 | Y -0.159 ± 0.15 | Q 0.017 ± 0.094
P8: S -0.413 ± 0.15 | A 0.076 ± 0.065 | Y -0.643 ± 0.38 | G -0.504 ± 0.11 | I 0.043 ± 0.22 | K -0.272 ± 0.085 | R -0.254 ± 0.091 | M -0.329 ± 0.2 | D -0.107 ± 0.075 | C -0.54 ± 0.25
E54: I -0.283 ± 0.34 | P -0.545 ± 0.087 | H -0.672 ± 0.32 | G -0.362 ± 0.064 | F 0.025 ± 0.17 | C -0.811 ± 0.19 | K -0.722 ± 0.36 | R -0.615 ± 0.11 | W -0.307 ± 0.11
S22: G -0.059 ± 0.059 | Y -0.772 ± 0.18 | T -0.078 ± 0.059 | V -0.403 ± 0.1 | R -0.358 ± 0.067 | F -0.168 ± 0.057 | C -0.075 ± 0.13 | L -0.56 ± 0.088
